Target: erb-b2 receptor tyrosine kinase 2 (HER2) on target cells (Homo sapiens (Human), UniProt P04626 23-1255)
Experiment: cell-based or functional assay

B1: HER2 CAR CT1094 (receptor)
chain: QVQLQQSGPELKKPGETVKISCKASGYPFTNYGMNWVKQAPGQGLKWMGWINTSTGESTFADDFKGRFDFSLETSANTAYLQINNLKSEDSATYFCARWEVYHGYVPYWGQGTTVTVSSGGGGSGGGGSGGGGSDIQLTQSHKFLSTSVGDRVSITCKASQDVYNAVAWYQQKPGQSPKLLIYSASSRYTGVPSRFTGSGSGPDFTFTISSVQAEDLAVYFCQQHFRTPFTFGSGTKLEIKAEPKSPDKTHTCPPCPKDPKFWVLVVVGGVLACYSLLVTVAFIIFWVRSKRSRLLHSDYMNMTPRRPGPTRKHYQPYAPPRDFAAYRSRVKFSRSADAPAYKQGQNQLYNELNLGRREEYDVLDKRRGRDPEMGGKPRRKNPQEGLYNELQKDKMAEAYSEIGMKGERRRGKGHDGLYQGLSTATKDTYDALHMQALPPR
- EC50 (molecules/cell), Jurkat NFAT luciferase activation, mRNA titration in HeLa; construct CT1094 (CAR only): 6500 molecules/cell
- EC50 (molecules/cell), Jurkat NFAT luciferase activation, mRNA titration in HeLa; construct CT1113 (CT1094 + Murine blocker): 4900 molecules/cell
- EC50 (molecules/cell), Jurkat NFAT luciferase activation, mRNA titration in HeLa; construct CT1121 (CT1094 + Human-1 blocker): 4600 molecules/cell
- EC50 (molecules/cell), Jurkat NFAT luciferase activation, mRNA titration in HeLa; construct CT1187 (CT1094 + Human-2 blocker): 4500 molecules/cell
